Source: US20260167699A1 (Chugai, published 2026)

B1: GpH7-A5/GpH7-B3 variant Q295_14T/GpL16-k0 (antibody, human IgG1, kappa)
heavy 1: not shown
heavy 2: not shown
light: DIVMTQSPLSLPVTPGEPASISCQASESLVHSNRNTYLHWYLQKPGQSPQLLIYKVSNRFSGVPDRFSGSGSGTDFTLKISRVEAEDVGVYYCSQNTHVPPTFGQGTKVEIERTVAAPSVFIFPPSDEQLKSGTASVVCLLNNFYPREAKVQWKVDNALQSGNSQESVTEQDSKDSTYSLSSTLTLSKADYEKHKVYACEVTHQGLSSPVTKSFNRGEC
notes: He Ab; copies: 1 + 1 + 2
B2: GpH7-A5/GpH7-B3 variant Q295_15Y/GpL16-k0 (antibody, human IgG1, kappa)
heavy 1: not shown
heavy 2: not shown
light: B1 light
notes: He Ab; copies: 1 + 1 + 2
B3: GpH7-A5/GpH7-B3 variant Q295_16H/GpL16-k0 (antibody, human IgG1, kappa)
heavy 1: not shown
heavy 2: not shown
light: B1 light
notes: He Ab; copies: 1 + 1 + 2
B4: GpH7-A5/GpH7-B3 variant Q295_18N/GpL16-k0 (antibody, human IgG1, kappa)
heavy 1: not shown
heavy 2: not shown
light: B1 light
notes: He Ab; copies: 1 + 1 + 2
B5: GpH7-A5/GpH7-B3 variant S239_01G/GpL16-k0 (antibody, human IgG1, kappa)
heavy 1: not shown
heavy 2: not shown
light: B1 light
notes: He Ab; also called 3239_01G; copies: 1 + 1 + 2
B6: GpH7-A5/GpH7-B3 variant S239_02A/GpL16-k0 (antibody, human IgG1, kappa)
heavy 1: not shown
heavy 2: not shown
light: B1 light
notes: He Ab; copies: 1 + 1 + 2
B7: GpH7-A5/GpH7-B3 variant S239_03V/GpL16-k0 (antibody, human IgG1, kappa)
heavy 1: not shown
heavy 2: not shown
light: B1 light
notes: He Ab; copies: 1 + 1 + 2
B8: GpH7-A5/GpH7-B3 variant S239_06M/GpL16-k0 (antibody, human IgG1, kappa)
heavy 1: not shown
heavy 2: not shown
light: B1 light
notes: He Ab; copies: 1 + 1 + 2
B9: GpH7-A5/GpH7-B3 variant S239_07I/GpL16-k0 (antibody, human IgG1, kappa)
heavy 1: not shown
heavy 2: not shown
light: B1 light
notes: He Ab; copies: 1 + 1 + 2
B10: GpH7-A5/GpH7-B3 variant S239_08L/GpL16-k0 (antibody, human IgG1, kappa)
heavy 1: not shown
heavy 2: not shown
light: B1 light
notes: He Ab; copies: 1 + 1 + 2
B11: GpH7-A5/GpH7-B3 variant S239_09D/GpL16-k0 (antibody, human IgG1, kappa)
heavy 1: not shown
heavy 2: not shown
light: B1 light
notes: He Ab; copies: 1 + 1 + 2
B12: GpH7-A5/GpH7-B3 variant S239_10E/GpL16-k0 (antibody, human IgG1, kappa)
heavy 1: not shown
heavy 2: not shown
light: B1 light
notes: He Ab; copies: 1 + 1 + 2
B13: GpH7-A5/GpH7-B3 variant S239_14T/GpL16-k0 (antibody, human IgG1, kappa)
heavy 1: not shown
heavy 2: not shown
light: B1 light
notes: He Ab; copies: 1 + 1 + 2
B14: GpH7-A5/GpH7-B3 variant S239_18N/GpL16-k0 (antibody, human IgG1, kappa)
heavy 1: not shown
heavy 2: not shown
light: B1 light
notes: He Ab; copies: 1 + 1 + 2
B15: GpH7-A5/GpH7-B3 variant S239_19Q/GpL16-k0 (antibody, human IgG1, kappa)
heavy 1: not shown
heavy 2: not shown
light: B1 light
notes: He Ab; copies: 1 + 1 + 2
B16: GpH7-A5/GpH7-B3 variant S267_01G/GpL16-k0 (antibody, human IgG1, kappa)
heavy 1: not shown
heavy 2: not shown
light: B1 light
notes: He Ab; copies: 1 + 1 + 2
B17: GpH7-A5/GpH7-B3 variant S267_02A/GpL16-k0 (antibody, human IgG1, kappa)
heavy 1: not shown
heavy 2: not shown
light: B1 light
notes: He Ab; copies: 1 + 1 + 2
B18: GpH7-A5/GpH7-B3 variant S267_06M/GpL16-k0 (antibody, human IgG1, kappa)
heavy 1: not shown
heavy 2: not shown
light: B1 light
notes: He Ab; copies: 1 + 1 + 2
B19: GpH7-A5/GpH7-B3 variant S267_09D/GpL16-k0 (antibody, human IgG1, kappa)
heavy 1: not shown
heavy 2: not shown
light: B1 light
notes: He Ab; copies: 1 + 1 + 2
B20: GpH7-A5/GpH7-B3 variant S267_10E/GpL16-k0 (antibody, human IgG1, kappa)
heavy 1: not shown
heavy 2: not shown
light: B1 light
notes: He Ab; copies: 1 + 1 + 2
B21: GpH7-A5/GpH7-B3 variant S267_18N/GpL16-k0 (antibody, human IgG1, kappa)
heavy 1: not shown
heavy 2: not shown
light: B1 light
notes: He Ab; copies: 1 + 1 + 2
B22: GpH7-A5/GpH7-B3 variant S267_19Q/GpL16-k0 (antibody, human IgG1, kappa)
heavy 1: not shown
heavy 2: not shown
light: B1 light
notes: He Ab; copies: 1 + 1 + 2
B23: GpH7-A5/GpH7-B3 variant S298_01G/GpL16-k0 (antibody, human IgG1, kappa)
heavy 1: not shown
heavy 2: not shown
light: B1 light
notes: He Ab; copies: 1 + 1 + 2
B24: GpH7-A5/GpH7-B3 variant S298_02A/GpL16-k0 (antibody, human IgG1, kappa)
heavy 1: not shown
heavy 2: not shown
light: B1 light
notes: He Ab; copies: 1 + 1 + 2
B25: GpH7-A5/GpH7-B3 variant S298_03V/GpL16-k0 (antibody, human IgG1, kappa)
heavy 1: not shown
heavy 2: not shown
light: B1 light
notes: He Ab; copies: 1 + 1 + 2
B26: GpH7-A5/GpH7-B3 variant S298_04F/GpL16-k0 (antibody, human IgG1, kappa)
heavy 1: not shown
heavy 2: not shown
light: B1 light
notes: He Ab; copies: 1 + 1 + 2
B27: GpH7-A5/GpH7-B3 variant S298_06M/GpL16-k0 (antibody, human IgG1, kappa)
heavy 1: not shown
heavy 2: not shown
light: B1 light
notes: He Ab; copies: 1 + 1 + 2
B28: GpH7-A5/GpH7-B3 variant S298_07I/GpL16-k0 (antibody, human IgG1, kappa)
heavy 1: not shown
heavy 2: not shown
light: B1 light
notes: He Ab; copies: 1 + 1 + 2
B29: GpH7-A5/GpH7-B3 variant S298_08L/GpL16-k0 (antibody, human IgG1, kappa)
heavy 1: not shown
heavy 2: not shown
light: B1 light
notes: He Ab; copies: 1 + 1 + 2
B30: GpH7-A5/GpH7-B3 variant S298_09D/GpL16-k0 (antibody, human IgG1, kappa)
heavy 1: not shown
heavy 2: not shown
light: B1 light
notes: He Ab; copies: 1 + 1 + 2
B31: GpH7-A5/GpH7-B3 variant S298_11K/GpL16-k0 (antibody, human IgG1, kappa)
heavy 1: not shown
heavy 2: not shown
light: B1 light
notes: He Ab; copies: 1 + 1 + 2
B32: GpH7-A5/GpH7-B3 variant S298_12R/GpL16-k0 (antibody, human IgG1, kappa)
heavy 1: not shown
heavy 2: not shown
light: B1 light
notes: He Ab; copies: 1 + 1 + 2
B33: GpH7-A5/GpH7-B3 variant S298_14T/GpL16-k0 (antibody, human IgG1, kappa)
heavy 1: not shown
heavy 2: not shown
light: B1 light
notes: He Ab; copies: 1 + 1 + 2
B34: GpH7-A5/GpH7-B3 variant S298_15Y/GpL16-k0 (antibody, human IgG1, kappa)
heavy 1: not shown
heavy 2: not shown
light: B1 light
notes: He Ab; copies: 1 + 1 + 2
B35: GpH7-A5/GpH7-B3 variant S298_16H/GpL16-k0 (antibody, human IgG1, kappa)
heavy 1: not shown
heavy 2: not shown
light: B1 light
notes: He Ab; copies: 1 + 1 + 2
B36: GpH7-A5/GpH7-B3 variant S298_18N/GpL16-k0 (antibody, human IgG1, kappa)
heavy 1: not shown
heavy 2: not shown
light: B1 light
notes: He Ab; copies: 1 + 1 + 2
B37: GpH7-A5/GpH7-B3 variant S298_19Q/GpL16-k0 (antibody, human IgG1, kappa)
heavy 1: not shown
heavy 2: not shown
light: B1 light
notes: He Ab; copies: 1 + 1 + 2
B38: GpH7-A5/GpH7-B3 variant S324_01G/GpL16-k0 (antibody, human IgG1, kappa)
heavy 1: not shown
heavy 2: not shown
light: B1 light
notes: He Ab; copies: 1 + 1 + 2
B39: GpH7-A5/GpH7-B3 variant S324_02A/GpL16-k0 (antibody, human IgG1, kappa)
heavy 1: not shown
heavy 2: not shown
light: B1 light
notes: He Ab; copies: 1 + 1 + 2
B40: GpH7-A5/GpH7-B3 variant S324_03V/GpL16-k0 (antibody, human IgG1, kappa)
heavy 1: not shown
heavy 2: not shown
light: B1 light
notes: He Ab; copies: 1 + 1 + 2
B41: GpH7-A5/GpH7-B3 variant S324_04F/GpL16-k0 (antibody, human IgG1, kappa)
heavy 1: not shown
heavy 2: not shown
light: B1 light
notes: He Ab; copies: 1 + 1 + 2
B42: GpH7-A5/GpH7-B3 variant S324_06M/GpL16-k0 (antibody, human IgG1, kappa)
heavy 1: not shown
heavy 2: not shown
light: B1 light
notes: He Ab; copies: 1 + 1 + 2
B43: GpH7-A5/GpH7-B3 variant S324_07I/GpL16-k0 (antibody, human IgG1, kappa)
heavy 1: not shown
heavy 2: not shown
light: B1 light
notes: He Ab; copies: 1 + 1 + 2
B44: GpH7-A5/GpH7-B3 variant S324_08L/GpL16-k0 (antibody, human IgG1, kappa)
heavy 1: not shown
heavy 2: not shown
light: B1 light
notes: He Ab; copies: 1 + 1 + 2

target: T1, FcγRIIIa extracellular domain, C-terminal His tag (human, UniProt P08637 17-208); test: SPR, binding activity relative to GpH7-A5/GpH7-B3/GpL16-k0 (=100)
T1 construct: extracellular domain; also called 3a
T1 sequence (P08637 other isoform, or with tags, fused parts or gaps): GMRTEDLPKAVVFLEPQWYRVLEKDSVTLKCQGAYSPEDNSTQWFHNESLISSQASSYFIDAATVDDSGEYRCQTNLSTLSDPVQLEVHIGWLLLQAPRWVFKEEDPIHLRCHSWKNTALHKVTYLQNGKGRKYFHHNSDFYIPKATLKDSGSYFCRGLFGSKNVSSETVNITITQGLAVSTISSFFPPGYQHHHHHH

He/Con 3a [%]	Binder
120	B1
81.5	B2
80.2	B3
85.7	B4
72	B5
70.9	B6
72.4	B7
73.9	B8
75	B9
90	B10
156	B11
171	B12
93	B13
104	B14
53.8	B15
53.3	B16
149	B17
65.3	B18
179	B19
90.9	B20
52	B21
64.3	B22

He/Con 3a [%]	Binder
74.9	B23
151	B24
103	B25
77.6	B26
87.2	B27
90.7	B28
69.2	B29
62.7	B30
50	B31
52.1	B32
106	B33
80.6	B34
71.9	B35
51.4	B36
70.6	B37
114	B38
113	B39
101	B40
99.3	B41
124	B42
101	B43
95.5	B44
